Data taken from US20160215065A1 (Genentech, published 2016).
Several values for one entry are separate records, joined by “and”; a condition that tells them apart may be missing. Equal entries are not always repeated.

How the values were obtained:
[1] = molecular target: human zymogen NSP4 (hZ) (human) (UniProt Q6UWY2); assay: competition phage ELISA (phage IC50); soluble hZ-NSP4 against plate-coated NSP4
mouse active NSP4 (mA) = molecular target: T1, mouse active NSP4 (mA) (mouse, UniProt Q14B24 36-284); assay: BLI affinity class in summary table
T1 construct: mature; also called mA-NSP4; mA (NSP4)
T1 sequence (looked up): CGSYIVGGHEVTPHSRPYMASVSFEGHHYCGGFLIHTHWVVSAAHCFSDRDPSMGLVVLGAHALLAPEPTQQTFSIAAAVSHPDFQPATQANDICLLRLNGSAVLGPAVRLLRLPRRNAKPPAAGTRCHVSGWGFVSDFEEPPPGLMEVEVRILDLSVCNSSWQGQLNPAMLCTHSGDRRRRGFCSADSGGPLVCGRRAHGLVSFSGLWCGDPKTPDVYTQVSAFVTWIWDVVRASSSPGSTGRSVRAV

human active NSP4 (hA) = molecular target: T2, human active NSP4 (hA) (human, UniProt Q6UWY2 34-283); assay: BLI affinity class in summary table
T2 construct: range 34-283; For crystals partly deglycosylated with Endo F3 (FFR-cmk complex) or fully glycosylated (VLK-cmk complex); also called hA-NSP4; hA (NSP4)
T2 sequence (looked up): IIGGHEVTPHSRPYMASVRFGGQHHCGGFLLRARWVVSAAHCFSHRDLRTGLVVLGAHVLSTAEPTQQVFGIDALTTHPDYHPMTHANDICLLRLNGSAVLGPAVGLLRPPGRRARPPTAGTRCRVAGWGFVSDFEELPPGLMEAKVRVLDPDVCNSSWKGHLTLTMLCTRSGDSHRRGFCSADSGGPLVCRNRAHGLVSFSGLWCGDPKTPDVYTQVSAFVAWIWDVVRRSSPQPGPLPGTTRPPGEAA

mouse zymogen NSP4 (mZ) = molecular target: T3, mouse zymogen NSP4 (mZ) (mouse, UniProt Q14B24 36-284); assay: BLI affinity class in summary table
T3 construct: mature; Expressed in CHO cells; also called mZ-NSP4; mZ (NSP4); not shown: N-terminal FLAG tag cleavable by enteropeptidase (cleavage after Asp-Asp-Asp-Asp-Lys)
T3 sequence (looked up): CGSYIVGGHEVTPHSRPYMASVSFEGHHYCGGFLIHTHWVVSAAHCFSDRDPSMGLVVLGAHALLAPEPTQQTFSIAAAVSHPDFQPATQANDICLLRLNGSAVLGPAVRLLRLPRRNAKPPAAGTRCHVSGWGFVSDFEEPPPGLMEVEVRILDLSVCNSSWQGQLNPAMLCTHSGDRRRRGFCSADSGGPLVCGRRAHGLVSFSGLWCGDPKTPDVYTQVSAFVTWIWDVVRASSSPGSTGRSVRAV

[2] = molecular target: human zymogen NSP4 (hZ) (human) (UniProt Q6UWY2); assay: BLI affinity class in summary table
[3] = molecular target: T4, mouse active NSP4 (mA) (mouse), Q14B24; assay: competition phage ELISA (phage IC50); soluble mA-NSP4 against plate-coated NSP4; conditions: remark: other sources report otherwise
T4 chain: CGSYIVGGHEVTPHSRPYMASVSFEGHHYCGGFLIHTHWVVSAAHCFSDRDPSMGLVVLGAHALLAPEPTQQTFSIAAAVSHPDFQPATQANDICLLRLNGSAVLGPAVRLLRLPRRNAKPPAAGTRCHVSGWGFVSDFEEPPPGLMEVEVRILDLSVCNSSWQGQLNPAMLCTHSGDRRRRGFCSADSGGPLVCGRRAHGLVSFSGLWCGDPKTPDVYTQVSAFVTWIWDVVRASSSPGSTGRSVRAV

[4] = molecular target: T4, mouse active NSP4 (mA) (mouse), Q14B24; assay: BLI affinity class in summary table; conditions: remark: other sources report otherwise

Row | Binder | IC50 [1] [nM] | Kd (mouse active NSP4 (mA)) [nM] | Kd (human active NSP4 (hA)) [nM] | Kd (mouse zymogen NSP4 (mZ)) [nM] | Kd [2] | IC50 [3] [nM] | Kd [4] [nM]
1 | anti-NSP4 antibody 2-4 (antibody, human IgG1, V domains shown, also called clone 2-4) VH: EVQLVESGGGLVQPGGSLRLSCAASGFTFSDYWISWVRQAPGKGLEWVAGISPNNGDTYYADSVKGRFTISADTSKNTAYLQMNSLRAEDTAVYYCAREDDDERDYAMDYWGQGTLVTVSS VL: DIQMTQSPSSLSASVGDRVTITCRASQDVSTAVAWYQQKPGKAPKLLIYSASFLYSGVPSRFSGSGSGTDFTLTISSLQPEDFATYYCQQSYTTPPTFGQGTKVEIKR | 2.3 | < 50 | < 50 | < 50 | < 50 nM | – | –
2 | anti-NSP4 antibody 2-5 (antibody, human IgG1, V domains shown, also called clone 2-5) VH: EVQLVESGGGLVQPGGSLRLSCAASGFTFTGYGISWVRQAPGKGLEWVGWIYPASGATYYADSVKGRFTISADTSKNTAYLQMNSLRAEDTAVYYCARHRAFDWYPYYIGSSVMDYWGQGTLVTVSS VL: DIQMTQSPSSLSASVGDRVTITCRASQDVSTAVAWYQQKPGKAPKLLIYSASFLYSGVPSRFSGSGSGTDFTLTISSLQPEDFATYYCQQSYTTPPTFGQGTKVEIKR | 22 | – | – | < 50 | < 50 nM | – | –
3 | anti-NSP4 antibody 3-5 (antibody, human IgG1, V domains shown, also called Ab 3-5; Ab35) VH: EVQLVESGGGLVQPGGSLRLSCAASGFTFSDNDISWVRQAPGKGLEWVGSISPDNGDTNYADSVKGRFTISADTSKNTAYLQMNSLRAEDTAVYYCARDDVPAVFTSAMDYWGQGTLVTVSS VL: DIQMTQSPSSLSASVGDRVTITCRASQDVSTAVAWYQQKPGKAPKLLIYSASFLYSGVPSRFSGSGSGTDFTLTISSLQPEDFATYYCQQSYTTPPTFGQGTKVEIKR | – | < 50 | < 50 | < 50 | < 50 nM | – | –
4 | anti-NSP4 antibody 4-2 (antibody, human IgG1, V domains shown, also called clone 4-2) VH: EVQLVESGGGLVQPGGSLRLSCAASGFTFSGSDISWVRQAPGKGLEWVGEIYPSNGDTYYADSVKGRFTISADTSKNTAYLQMNSLRAEDTAVYYCARSVRPSWWAMDYWGQGTLVTVSS VL: DIQMTQSPSSLSASVGDRVTITCRASQDVSTAVAWYQQKPGKAPKLLIYSASFLYSGVPSRFSGSGSGTDFTLTISSLQPEDFATYYCQQSYTTPPTFGQGTKVEIKR | – | – | < 50 | – | > 50 nM and < 1000 nM | – | –
5 | anti-NSP4 antibody 4-4 (antibody, human IgG1, V domains shown, also called clone 4-4) VH: EVQLVESGGGLVQPGGSLRLSCAASGFTFTSTSIHWVRQAPGKGLEWVAEITPHGGYTNYADSVKGRFTISADTSKNTAYLQMNSLRAEDTAVYYCARGRTKWGWLYGMDYWGQGTLVTVSS VL: DIQMTQSPSSLSASVGDRVTITCRASQDVSTAVAWYQQKPGKAPKLLIYSASFLYSGVPSRFSGSGSGTDFTLTISSLQPEDFATYYCQQSYTTPPTFGQGTKVEIKR | – | – | < 50 | – | > 50 nM and < 1000 nM | – | –
6 | anti-NSP4 antibody 5-1 (antibody, human IgG1, V domains shown) VH: EVQLVESGGGLVQPGGSLRLSCAASGFTFSGSGIHWVRQAPGKGLEWVAWISPTGGNTYYADSVKGRFTISADTSKNTAYLQMNSLRAEDTAVYYCAKSLFHNVAFDYWGQGTLVTVSS VL: DIQMTQSPSSLSASVGDRVTITCRASQDVSTAVAWYQQKPGKAPKLLIYSASFLYSGVPSRFSGSGSGTDFTLTISSLQPEDFATYYCQQSYTTPPTFGQGTKVEIKR | – | – | – | – | – | 9.93 | < 50
7 | anti-NSP4 antibody 5-3 (antibody, V domains shown) VH: EVQLVESGGGLVQPGGSLRLSCAASGFTFSGNDISWVRQAPGKGLEWVAGISPYGGSTYYADSVKGRFTISADTSKNTAYLQMNSLRAEDTAVYYCARRVSFYSRHAGMDYWGQGTLVTVSS VL: DIQMTQSPSSLSASVGDRVTITCRASQDVSTAVAWYQQKPGKAPKLLIYSASFLYSGVPSRFSGSGSGTDFTLTISSLQPEDFATYYCQQSYTTPPTFGQGTKVEIKR | – | – | – | – | – | 319 | < 50
8 | anti-NSP4 antibody 5-4 (antibody, V domains shown) VH: EVQLVESGGGLVQPGGSLRLSCAASGFTFTSYAISWVRQAPGKGLEWVAGISPSNGYTNYADSVKGRFTISADTSKNTAYLQMNSLRAEDTAVYYCARAGRWTHSDIDYWGQGTLVTVSS VL: DIQMTQSPSSLSASVGDRVTITCRASQDVSTAVAWYQQKPGKAPKLLIYSASFLYSGVPSRFSGSGSGTDFTLTISSLQPEDFATYYCQQSYTTPPTFGQGTKVEIKR | – | – | – | – | – | 60.5 | < 50
9 | anti-NSP4 antibody 1-1 (antibody, human IgG1, V domains shown) VH: EVQLVESGGGLVQPGGSLRLSCAASGFTFSGSWISWVRQAPGKGLEWVGTISPYNGSTYYADSVKGRFTISADTSKNTAYLQMNSLRAEDTAVYYCARVLRPKVYASVMDYWGQGTLVTVSS VL: DIQMTQSPSSLSASVGDRVTITCRASQDVSTAVAWYQQKPGKAPKLLIYSASFLYSGVPSRFSGSGSGTDFTLTISSLQPEDFATYYCQQSYTTPPTFGQGTKVEIKR | 155 | – | – | – | > 50 nM and < 1000 nM | – | –
10 | anti-NSP4 antibody 1-2 (antibody, human IgG1, V domains shown) VH: EVQLVESGGGLVQPGGSLRLSCAASGFTFSGYSIHWVRQAPGKGLEWVAGISPTNGYTDYADSVKGRFTISADTSKNTAYLQMNSLRAEDTAVYYCARLVFYRGVMDYWGQGTLVTVSS VL: DIQMTQSPSSLSASVGDRVTITCRASQDVSTAVAWYQQKPGKAPKLLIYSASFLYSGVPSRFSGSGSGTDFTLTISSLQPEDFATYYCQQSYTTPPTFGQGTKVEIKR | 22.1 | – | – | – | < 50 nM | – | –
11 | anti-NSP4 antibody 1-3 (antibody, human IgG1, V domains shown) VH: EVQLVESGGGLVQPGGSLRLSCAASGFTFSDNWISWVRQAPGKGLEWVGYIYPASGYTDYADSVKGRFTISADTSKNTAYLQMNSLRAEDTAVYYCASDSPHAYWYAMDYWGQGTLVTVSS VL: DIQMTQSPSSLSASVGDRVTITCRASQDVSTAVAWYQQKPGKAPKLLIYSASFLYSGVPSRFSGSGSGTDFTLTISSLQPEDFATYYCQQSYTTPPTFGQGTKVEIKR | 52 | – | – | – | > 50 nM and < 1000 nM | – | –
12 | anti-NSP4 antibody 1-5 (antibody, human IgG1, V domains shown) VH: EVQLVESGGGLVQPGGSLRLSCAASGFTFTNNSISWVRQAPGKGLEWVGAISPNNGSTYYADSVKGRFTISADTSKNTAYLQMNSLRAEDTAVYYCARNAWHYSWVGVMDYWGQGTLVTVSS VL: DIQMTQSPSSLSASVGDRVTITCRASQDVSTAVAWYQQKPGKAPKLLIYSASFLYSGVPSRFSGSGSGTDFTLTISSLQPEDFATYYCQQSYTTPPTFGQGTKVEIKR | 114 | – | – | – | > 50 nM and < 1000 nM | – | –
13 | anti-NSP4 antibody 2-1 (antibody, human IgG1, V domains shown, also called clone 2-1) VH: EVQLVESGGGLVQPGGSLRLSCAASGFTFTDYSIHWVRQAPGKGLEWVAEIYPYSGDTYYADSVKGRFTISADTSKNTAYLQMNSLRAEDTAVYYCARDGDGWFDWAMDYWGQGTLVTVSS VL: DIQMTQSPSSLSASVGDRVTITCRASQDVSTAVAWYQQKPGKAPKLLIYSASFLYSGVPSRFSGSGSGTDFTLTISSLQPEDFATYYCQQSYTTPPTFGQGTKVEIKR | 7.62 | < 50 | < 50 | < 50 | < 50 nM | – | –
14 | anti-NSP4 antibody 2-2 (antibody, human IgG1, V domains shown, also called clone 2-2) VH: EVQLVESGGGLVQPGGSLRLSCAASGFTFSSTAISWVRQAPGKGLEWVGEIYPSDGYTDYADSVKGRFTISADTSKNTAYLQMNSLRAEDTAVYYCARVKWAVSSLGVMDYWGQGTLVTVSS VL: DIQMTQSPSSLSASVGDRVTITCRASQDVSTAVAWYQQKPGKAPKLLIYSASFLYSGVPSRFSGSGSGTDFTLTISSLQPEDFATYYCQQSYTTPPTFGQGTKVEIKR | 10.4 | – | – | < 50 | < 50 nM | – | –
15 | anti-NSP4 antibody 2-3 (antibody, human IgG1, V domains shown, also called clone 2-3) VH: EVQLVESGGGLVQPGGSLRLSCAASGFTFTDSDISWVRQAPGKGLEWVAWISPSDGATDYADSVKGRFTISADTSKNTAYLQMNSLRAEDTAVYYCAHEASDDDYAIDYWGQGTLVTVSS VL: DIQMTQSPSSLSASVGDRVTITCRASQDVSTAVAWYQQKPGKAPKLLIYSASFLYSGVPSRFSGSGSGTDFTLTISSLQPEDFATYYCQQSYTTPPTFGQGTKVEIKR | 3.07 | < 50 | < 50 | < 50 | < 50 nM | – | –
16 | anti-NSP4 antibody 3-2 (antibody, human IgG1, V domains shown, also called Ab 3-2; clone 3-2) VH: EVQLVESGGGLVQPGGSLRLSCAASGFTFSDYSISWVRQAPGKGLEWVGEINPAGGATYYADSVKGRFTISADTSKNTAYLQMNSLRAEDTAVYYCARGDFPFWSDAYYVMDYWGQGTLVTVSS VL: DIQMTQSPSSLSASVGDRVTITCRASQDVSTAVAWYQQKPGKAPKLLIYSASFLYSGVPSRFSGSGSGTDFTLTISSLQPEDFATYYCQQSYTTPPTFGQGTKVEIKR | – | < 50 | – | < 50 | – | – | –
